Measurements as given in publication doi:10.1101/2025.11.21.689678 (bioRxiv, 2025).

Biological target: MBP-MAGEA6 (human (cDNA from A549 cells), UniProt P43360 1-314)
Assay: pull-down

MBP-MAGEA6, sequence (P43360 whole entry): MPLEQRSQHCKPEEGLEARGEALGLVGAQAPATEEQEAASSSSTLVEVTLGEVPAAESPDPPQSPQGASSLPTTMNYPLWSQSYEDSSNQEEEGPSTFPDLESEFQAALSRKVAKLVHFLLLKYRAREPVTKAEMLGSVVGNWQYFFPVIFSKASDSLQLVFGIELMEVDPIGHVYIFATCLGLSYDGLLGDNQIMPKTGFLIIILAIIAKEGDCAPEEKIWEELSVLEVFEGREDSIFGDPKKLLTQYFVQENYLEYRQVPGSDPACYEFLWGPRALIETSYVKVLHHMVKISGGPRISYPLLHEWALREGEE

binding result: binds
B1: His-Flag-ALKBH2 (natural protein, human, UniProt Q6NS38 1-261, looked up)
chain: MDRFLVKGAQGGLLRKQEEQEPTGEEPAVLGGDKESTRKRPRREAPGNGGHSAGPSWRHIRAEGLDCSYTVLFGKAEADEIFQELEKEVEYFTGALARVQVFGKWHSVPRKQATYGDAGLTYTFSGLTLSPKPWIPVLERIRDHVSGVTGQTFNFVLINRYKDGCDHIGEHRDDERELAPGSPIASVSFGACRDFVFRHKDSRGKSPSRRVAVVRLPLAHGSLLMMNHPTNTHWYHSLPVRKKVLAPRVNLTFRKILLTKK
